Experiment: SGF digest of 168 nutritive polypeptide library, intact protein by LC-MS/MS
Type: in vitro ADME
Settings: 168 nutritive polypeptide library SGF digest, LC-MS/MS spectral counts
Experimental: The in vitro intact half-life of multiple polypeptides in a complex mixture was determined using the simulated gastric in vitro digestion described above. Briefly, the 168 nutritive polypeptide library was generated as described herein by cloning, transforming, and expressing a gene library encoding 168 proteins as a single mixture. The recombinantly expressed proteins were purified from host cell proteins by IMAC purification as described herein.
The 168 Protein Library was treated with SGF as described above and the t=0 and t=10 min samples were analyzed for intact protein by LC-MS/MS. To begin, 10 μg of sample was loaded onto a 10% SDS-PAGE gel (Invitrogen) and run approximately 5 cm into the gel. The gel was excised into ten fractions from 100 kD to the dye front and the gel slices were processed by washing with 25 mM ammonium bicarbonate, followed by acetonitrile. Gel fractions were then reduced with 10 mM dithiothreitol at 60° C., followed by alkylation with 50 mM iodoacetamide at room temperature. Finally, the samples were digested with trypsin (Promega) at 37° C. for 4 h and the digestions were quenched with the addition of formic acid. The samples were then analyzed by nano LC/MS/MS using an EasynLC 1000 HPLC system interfaced to a ThermoFisher Q Exactive. Peptides were loaded on a trapping column and eluted over a 75 μm analytical column at 350 nL/min; both columns were packed with PepMap C18 3 μm resin (ThemoFisher). A 1 hour gradient was employed. The mass spectrometer was operated in data-dependent mode, with MS and MS/MS performed in the Orbitrap at 70,000 FWHM resolution and 17,500 FWHM resolution, respectively. The fifteen most abundant ions were selected for MS/MS. Data were searched against an appropriate database using Mascot to identify peptides. Mascot DAT files were parsed into the Scaffold software for validation, filtering and to create a nonredundant list per sample. Data were filtered at 1% protein and peptide false discovery rate (FDR) and requiring at least two unique peptides per protein. A full list of detected proteins and their spectral counts (SpC) was generated and reported as a function of each collected gel fraction. SpC are a count of the number of spectra identified for a given protein and are used as a measure of relative protein abundance (Liu, H. et al., Analytical Chemistry 2004, 76: 4193-4201). To calculate the percentage of intact protein remaining at the 10 min time point of the SGF digest the number of SpC representative of intact peptide in the t=10 min sample were divided by the number of SpC representative of intact peptide in the t=0 min sample. The number of SpC representative of intact peptide was defined as the sum of the SpC in the fraction with the highest number of SpC assigned to that protein in the t=0 min sample and the two flanking fractions.

Row | Molecule | % Intact Protein at 10 min
1 | SEQID-00533: protein of the 168 nutritive polypeptide library (protein, Arthrospira platensis NIES-39, protein of the 168 nutritive polypeptide library) MVTEFQTRDLADVIRRPIVTEKATIQMELNQFTFDVDPRADKPTIKAAVELLFPVKVLSVNTQNPPRRQRRVGRFVGYKPRYKRAIVTLEDGEALRKVLFPEV | 19%
2 | SEQID-00540: protein of the 168 nutritive polypeptide library (protein, Arthrospira platensis C1, protein of the 168 nutritive polypeptide library) MARIAGVDLPRDKRVEIGLTYIYGIGLSRSKEILAETGVNPDTRVKDLTDADVAALRSVIQTNYQVEGDLRRLEAMSIKRLMDIGTYRGRRHRMGLPVRGQRTRTNARTRRGVRRTVAGKKKAASKK | 0%
3 | SEQID-00552: protein of the 168 nutritive polypeptide library (protein, listed as Saccharomyces cerevisiae, source: /note="strain ATCC 204508 / S288c", protein of the 168 nutritive polypeptide library) MSNMMNKFAEKLQGNDDSHQKGKNAKSSNKERDDMNMDMGMGHDQSEGGMKMGHDQSGTKMNAGRGIANDWKTYENMKK | 79%
4 | SEQID-00532: protein of the 168 nutritive polypeptide library (protein, Arthrospira platensis NIES-39, protein of the 168 nutritive polypeptide library) MSIAVGMIETIGFPAVVEAADSMVKAARVTLVGYEKIGSGRVTVIVRGDVSEVQASVSAGIESVKRVNGGEVSSTHIIARPHENLEYVLPIRYTDAVEQFRSY | 0%
5 | SEQID-00524: protein of the 168 nutritive polypeptide library (protein, Ovis aries, protein of the 168 nutritive polypeptide library) MPAWYSIDSRVRGTSLVVKGLKENVEYHFRVSAENQFGISKPMKSEEPVIPKTPLSKASSNHNTVNFLS | 0%
6 | SEQID-00515: protein of the 168 nutritive polypeptide library (protein, listed as Saccharomyces cerevisiae, source: /note="strain ATCC 204508 / S288c", protein of the 168 nutritive polypeptide library) MSNLLNKFADKLHGNDHDERYEDDNDDQTRQQRHEKHQQREFRNQGSKADPYGEENQGNFPQRQQPQSNLGGNTQFGGNDFQQQTTDYTAGTGGGTYTQTYRETNTQGQLDDDEDDDFLTSGQQQKQGRTRGAQSNRYQSSNIGSGRRDLSGSGNDEYDDDSGNQGVW | 17%
7 | SEQID-00544: protein of the 168 nutritive polypeptide library (protein, listed as Gadus morhua) MGTRLHQTNTMKFAALALALLLAVGSHAAAMQSDAPSQLAHIRSAVGMYLDQVKDSAARSLDHLDGTEYESYKAQLATSLDSLQASIKTAQAGAEPYTDAAVAQVMEATTEVRASIMADIETLRTGPGPKREALKKVVDGHI | 0%
8 | SEQID-00520: protein of the 168 nutritive polypeptide library (protein, listed as Gallus gallus) MSDEEKKRRAATARRQHLKSAMLQLAVTEIEKEAAAKEVEKQNYLAEHCPPLSLPGSMQELQELCKKLHAKIDSVDEERYDTEVKLQKTNKELEDLSQKLFDLRGKFKRPPLRRVRMSADAMLRALLGSKHKVNMDLRANLKQVKKEDTEKEKDLRDVGDWRKNIEEKSGMEGRKKMFEAGES | 0%
9 | SEQID-00518: protein of the 168 nutritive polypeptide library (protein, listed as Lactobacillus acidophilus, source: /note="strain 30SC", protein of the 168 nutritive polypeptide library) MTKGILGRKVGMTQIFTKDGVLVPVTVVEATPNVVMQVKTVESDGYEAVQLGYQDKREVLSNKPEKGHADKAKTSPKRFIREIRGVELKDYEVGSEVTVDTFKEGDVVNVTGTSRGHGYQGNIKRWGQSRGPETHGSRYHRIPGSMGSIINRVPKGKRLPGHMGVKKVTIENLVIEKVVADKNVLMIKGNVPGAKNSLIVVKTASKAVKADK | 0%
10 | SEQID-00536: protein of the 168 nutritive polypeptide library (protein, listed as Solanum lycopersicum) MEEEKHHHHHLFHHKDKAEEGPVDYEKEIKHHKHLEQIGKLGTVAAGAYALHEKHEAKKDPEHAHKHKIEEEIAAAAAVGAGGFAFHEHHEKKDAKKEEKKAEGGHHHLF | 11.8%
11 | SEQID-00525: protein of the 168 nutritive polypeptide library (protein, listed as Saccharomyces cerevisiae, source: /note="strain ATCC 204508 / S288c", protein of the 168 nutritive polypeptide library) MTKNFIVTLKKNTPDVEAKKFLDSVHHAGGSIVHEFDIIKGYTIKVPDVLHLNKLKEKHNDVIENVEEDKEVHT | 13.7%
12 | SEQID-00545: protein of the 168 nutritive polypeptide library (protein, listed as Saccharomyces cerevisiae, source: /note="strain ATCC 204508 / S288c", protein of the 168 nutritive polypeptide library) MLSRAIFRNPVINRTLLRARPGAYHATRLTKNTFIQSRKYSDAHDEETFEEFTARYEKEFDEAYDLFEVQRVLNNCFSYDLVPAPAVIEKALRAARRVNDLPTAIRVFEALKYKVENEDQYKAYLDELKDVRQELGVPLKEELFPSSS | 0%
13 | SEQID-00521: protein of the 168 nutritive polypeptide library (protein, listed as Arthrospira platensis) MQDAITSVINSSDVQGKYLDASAIQKLKAYFATGELRVRAATTISANAANIVKEAVAKSLLYSDITRPGGNMYTTRRYAACIRDLDYYLRYATYAMLAGDPSILDERVLNGLKETYNSLGVPIGATVQAIQAMKEVTAGLVGADAGKEMGIYFDYICSGLS | 11.5%
14 | SEQID-00529: protein of the 168 nutritive polypeptide library (protein, Arthrospira platensis Sp-1, protein of the 168 nutritive polypeptide library) MLGYISAGKMGSSPSGARFFKYEVVGMRQNDETDKTEYQIRSSGSQFVIVPYNRMNQEMRRINRMGGKIVSIEPMTTDNTVSEAEGE | 0%
15 | SEQID-00555: protein of the 168 nutritive polypeptide library (protein, Arthrospira platensis NIES-39, protein of the 168 nutritive polypeptide library) MQAQEIIRAIEQEEIESVKTNVQKESIPKIYVGDTVKVGVRITEGGKERIQPYQGTVIAMRNGGINETITVRRIFQGVGVERVFLLHSPRIASIKVIMRGKVRRAKLYYLRDRVGKATRVPQRFDRPL | 6.8%
16 | SEQID-00541: protein of the 168 nutritive polypeptide library (protein, listed as Agaricus bisporus, source: /note="var. bisporus"; source: /note="strain H97 / ATCC MYA-4626 / FGSC 10389", protein of the 168 nutritive polypeptide library) MVRISVLNDCLKSICNASRRGKRQVIVRPSSKVVVKFLSVMQRHGYIGEFEIIDDHRGGKIIVQLNGRLNKTGVISPRFNVQHNRIEQWINYLLPSRGIGIIVLTTSSGILDHEEARRKNVGGKLLGYVY | 0%
17 | SEQID-00534: protein of the 168 nutritive polypeptide library (protein, Arthrospira platensis NIES-39, protein of the 168 nutritive polypeptide library) MSIYVGNLSYEVTEDDLTAVFAEYGSVKRVKLPTDRETGRMRGFGFVEMDTEAEEQSAIDALDGAEWCGRDLRVNKAKPRENSGSFGGGGGGRRGGGGYSRRS | 0%
18 | SEQID-00528: protein of the 168 nutritive polypeptide library (protein, listed as Saccharomyces cerevisiae, source: /note="strain ATCC 204508 / S288c", protein of the 168 nutritive polypeptide library) MVLVQDLLHPTAASEARKHKLKTLVQGPRSYFLDVKCPGCLNITTVFSHAQTAVTCESCSTVLCTPTGGKAKLSEGTSFRRK | 11.8%
